From PMC4686794, “Obesity-related known and candidate SNP markers can significantly change affinity of TATA-binding protein for human gene promoters” come the findings set out here.

What is called Kd is a measure of binding affinity in units of concentration.

Conditions in all cases: protein: recombinant; label: 32P on both strands; blunt
Series [1] concerns the target T1, TATA-binding protein (TBP) (Homo sapiens, UniProt P20226 1-339). The experiment in a line: EMSA (kinetic, kd/ka); 5 mM Mg2+; ka 30e3 M-1s-1, kd 6e-4 s-1; 20 mM HEPES-KOH pH 7.6, 5 mM MgCl2, 70 mM KCl, 1 mM DTT, 100 ug/mL BSA, 0.01% NP-40, 5% glycerol, 25 C; 0.3 nM active TBP, ODN 10-60 nM. In general terms: In EMSA bound probe runs differently from free probe, usually more slowly.

Series [2] has as its target T1, TATA-binding protein (TBP). The experiment in a line: EMSA (kinetic, kd/ka); 5 mM Mg2+; ka 70e3 M-1s-1, kd 5e-4 s-1; 20 mM HEPES-KOH pH 7.6, 5 mM MgCl2, 70 mM KCl, 1 mM DTT, 100 ug/mL BSA, 0.01% NP-40, 5% glycerol, 25 C; 0.3 nM active TBP, ODN 10-60 nM.
In series [3] the target is T1, TATA-binding protein (TBP). The experiment in a line: EMSA (kinetic, kd/ka); 5 mM Mg2+; ka 3.5e3 M-1s-1, kd 1.5e-4 s-1; 20 mM HEPES-KOH pH 7.6, 5 mM MgCl2, 70 mM KCl, 1 mM DTT, 100 ug/mL BSA, 0.01% NP-40, 5% glycerol, 25 C; 0.3 nM active TBP, ODN 10-60 nM.
Series [4] concerns the target T1, TATA-binding protein (TBP). Put plainly: EMSA (kinetic, kd/ka); 5 mM Mg2+; ka 5.6e3 M-1s-1, kd 13.0e-4 s-1; 20 mM HEPES-KOH pH 7.6, 5 mM MgCl2, 70 mM KCl, 1 mM DTT, 100 ug/mL BSA, 0.01% NP-40, 5% glycerol, 25 C; 0.3 nM active TBP, ODN 10-60 nM.
Series [5] concerns the target T1, TATA-binding protein (TBP). Put plainly: EMSA (kinetic, kd/ka); 5 mM Mg2+; ka 2.3e3 M-1s-1, kd 1.8e-4 s-1; 20 mM HEPES-KOH pH 7.6, 5 mM MgCl2, 70 mM KCl, 1 mM DTT, 100 ug/mL BSA, 0.01% NP-40, 5% glycerol, 25 C; 0.3 nM active TBP, ODN 10-60 nM.

T1 sequence (P20226 whole entry): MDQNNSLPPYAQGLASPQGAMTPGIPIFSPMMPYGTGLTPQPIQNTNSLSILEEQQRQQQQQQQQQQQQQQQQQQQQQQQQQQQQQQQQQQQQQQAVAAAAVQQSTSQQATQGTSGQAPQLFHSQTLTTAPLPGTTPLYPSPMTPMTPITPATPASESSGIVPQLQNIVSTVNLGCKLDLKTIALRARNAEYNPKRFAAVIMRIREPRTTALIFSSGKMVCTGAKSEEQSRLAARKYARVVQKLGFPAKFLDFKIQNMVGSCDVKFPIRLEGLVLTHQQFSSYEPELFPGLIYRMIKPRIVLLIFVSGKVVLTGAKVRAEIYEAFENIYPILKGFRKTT

B1: GCG -41g (rs183433761 minor) (dsDNA)
DNA 1: AGCTGGAGAGTGTATAAAAGCAGTGC
DNA 2: GCACTGCTTTTATACACTCTCCAGCT
Regarding B1, the equilibrium dissociation constant (Kd) in series [1] was found to be 18 nM.

B2: GCG WT (dsDNA)
DNA 1: AGCTGGAGAGTATATAAAAGCAGTGC
DNA 2: GCACTGCTTTTATATACTCTCCAGCT
Consider B2, for which, in series [2], the equilibrium dissociation constant (Kd) was 8 nM.

B3: LEP -38a (rs200487063 minor) (dsDNA)
DNA 1: ATCGGGCCACTATAAGAGGGGCGGGC
DNA 2: GCCCGCCCCTCTTATAGTGGCCCGAT
As to B3, in series [3], the dissociation constant (Kd) was determined as 43 nM.

B4: LEP -35g (rs201381696 minor) (dsDNA)
DNA 1: ATCGGGCCGCTGTAAGAGGGGCGGGC
DNA 2: GCCCGCCCCTCTTACAGCGGCCCGAT
As to B4, the Kd in series [4] was 232 nM.

B5: LEP WT (dsDNA)
DNA 1: ATCGGGCCGCTATAAGAGGGGCGGGC
DNA 2: GCCCGCCCCTCTTATAGCGGCCCGAT
For the molecule B5, the dissociation constant (Kd) in series [5] was determined as 78 nM.
